This note sets out measurements from patent US20080103095A1.

For the assay, the target named is firefly luciferase (firefly) [luciferase: P08659]. The assay can be described thus: cell-based or functional assay.
Sequence of firefly luciferase (firefly) [luciferase: P08659] (P08659 whole entry): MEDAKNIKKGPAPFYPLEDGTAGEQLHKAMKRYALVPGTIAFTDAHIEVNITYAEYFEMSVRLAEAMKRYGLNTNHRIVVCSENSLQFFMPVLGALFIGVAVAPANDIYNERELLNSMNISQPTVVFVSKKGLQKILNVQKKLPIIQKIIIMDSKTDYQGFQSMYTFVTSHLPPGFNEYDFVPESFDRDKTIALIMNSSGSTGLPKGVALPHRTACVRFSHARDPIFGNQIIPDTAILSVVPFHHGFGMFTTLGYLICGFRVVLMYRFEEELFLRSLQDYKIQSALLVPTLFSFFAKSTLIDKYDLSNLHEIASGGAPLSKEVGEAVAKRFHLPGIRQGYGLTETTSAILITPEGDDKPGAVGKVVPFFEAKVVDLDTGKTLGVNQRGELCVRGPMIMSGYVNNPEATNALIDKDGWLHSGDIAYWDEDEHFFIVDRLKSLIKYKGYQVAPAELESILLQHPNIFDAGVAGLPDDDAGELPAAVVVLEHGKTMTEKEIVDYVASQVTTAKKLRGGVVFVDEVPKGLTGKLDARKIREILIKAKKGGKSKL

“grp170 as used in Examples 6 and 8 (source and species not stated)” gave a percent protein aggregation (light scattering, OD 320 nm, 43° C 30 min; luciferase heated alone = 100%) of 40%.

In turn, “hsp110 as used in Examples 6, 8 and 10 (source and species not stated)” displayed a percent protein aggregation (light scattering, OD 320 nm, 43° C 30 min; luciferase heated alone = 100%) of 20%.
